How the values were obtained:
FLAG-SOX4 [1] = molecular target: T1, FLAG-SOX4 (Mus musculus, UniProt Q06831 1-440); experiment: EMSA; more robust binding than HNF4A; EMSA: 10 mM Tris-HCl pH 7.5, 1 mM MgCl2, 1 mM DTT, 50 mM KCl, 0.3 mg/ml BSA, 5% glycerol, RT 30 min; 5% native PAGE in 0.5x TBE; conditions: protein: recombinant; label: Cy5 5'-end; blunt
MYC-FLAG-HNF4A = molecular target: T2, MYC-FLAG-HNF4A (Mus musculus, UniProt P49698 1-474); experiment: EMSA; EMSA: 10 mM Tris-HCl pH 7.5, 1 mM MgCl2, 1 mM DTT, 50 mM KCl, 0.3 mg/ml BSA, 5% glycerol, RT 30 min; 5% native PAGE in 0.5x TBE; conditions: protein: commercial; tags: MYC-FLAG; chain copies: 2; label: Cy5 5'-end; blunt
T2 sequence: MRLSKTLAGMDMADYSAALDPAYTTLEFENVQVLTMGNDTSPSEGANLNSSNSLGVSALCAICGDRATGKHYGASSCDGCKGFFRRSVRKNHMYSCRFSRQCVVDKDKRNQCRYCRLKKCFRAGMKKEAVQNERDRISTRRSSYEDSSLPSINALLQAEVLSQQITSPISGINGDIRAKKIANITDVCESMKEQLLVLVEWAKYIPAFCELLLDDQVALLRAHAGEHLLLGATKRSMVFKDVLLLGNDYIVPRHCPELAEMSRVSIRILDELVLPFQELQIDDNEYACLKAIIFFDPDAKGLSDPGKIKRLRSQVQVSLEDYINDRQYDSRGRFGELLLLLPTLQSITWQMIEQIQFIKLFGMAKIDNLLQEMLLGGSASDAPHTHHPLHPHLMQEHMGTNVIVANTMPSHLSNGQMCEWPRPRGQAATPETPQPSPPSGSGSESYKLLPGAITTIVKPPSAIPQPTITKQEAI

FLAG-SOX4 [2] = molecular target: T1, FLAG-SOX4; experiment: competition; SOX4 displaces pre-bound HNF4A (30 nM); value is the effective SOX4 concentration; EMSA: 10 mM Tris-HCl pH 7.5, 1 mM MgCl2, 1 mM DTT, 50 mM KCl, 0.3 mg/ml BSA, 5% glycerol, RT 30 min; 5% native PAGE in 0.5x TBE; conditions: protein: recombinant; label: Cy5 5'-end; blunt

Measured: binding result

T1 sequence (Q06831 whole entry): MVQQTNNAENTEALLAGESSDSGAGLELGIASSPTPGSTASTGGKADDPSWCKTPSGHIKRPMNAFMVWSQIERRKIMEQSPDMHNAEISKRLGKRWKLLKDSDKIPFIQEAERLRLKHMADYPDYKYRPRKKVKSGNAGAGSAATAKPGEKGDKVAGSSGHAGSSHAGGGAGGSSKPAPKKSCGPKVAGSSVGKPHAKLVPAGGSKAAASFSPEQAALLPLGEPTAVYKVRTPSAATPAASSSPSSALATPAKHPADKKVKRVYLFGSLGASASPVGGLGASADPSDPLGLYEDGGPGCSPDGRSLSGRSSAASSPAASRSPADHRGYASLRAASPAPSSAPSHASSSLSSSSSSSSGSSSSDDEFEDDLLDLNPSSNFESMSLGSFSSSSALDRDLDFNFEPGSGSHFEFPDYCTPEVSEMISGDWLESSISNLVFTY

B1: Cyp2e1 distal enhancer WT (HNF4A motif) (dsDNA)
DNA 1: ATCTCTGGGACAAAGTATAGAGAAG
DNA 2: CTTCTCTATACTTTGTCCCAGAGAT
binds: FLAG-SOX4 [1] | MYC-FLAG-HNF4A | FLAG-SOX4 [2]

Source: PMC10897393, “Cellular reprogramming in vivo initiated by SOX4 pioneer factor activity”
